Ends that are not written are not given here.
B1: 125I-labeled Lym-1 F(ab')2 fragment (antibody, from another filing, mouse IgG2a, V domains shown)
VH: QLKESGPGLVAPSQSLSITCTISGFSLTSYGVHWVRQPPGKGLEWLVVIWSDGSTTYNSALKSRLSISKDNSKSQVFLKMNSLQTDDTAIYYCASHYGSTLAFASWGHGTLVTVSA
VL: DIQMTQSPASLSASVGETVTIICRASVNIYSYLAWYQQKQGKSPQLLVYNAKILAEGVPSRFSGSGSGTQFSLKINSLQPEDFGSYYCQHHYGTFTFGSGTKLEIK

Assays:
[1] = target: nucleohistones expressed in the nucleus of mammalian cells; test: radioimmunoassay on paraformaldehyde-acetone-treated cells
[2] = target: variant of the HLA-Dr antigen expressed on the cell surface of human B-lymphocytes and malignant lymphomas (human); test: indirect cell binding assay
[3] = target: variant of the HLA-Dr antigen expressed on the cell surface of human B-lymphocytes and malignant lymphomas (human); test: live cell binding assay
[4] = target: nucleohistones expressed in the nucleus of mammalian cells; test: cell binding assay (printed as live cell binding assay)
[5] = target: variant of the HLA-Dr antigen expressed on the cell surface of human B-lymphocytes and malignant lymphomas (human); test: live cell radioimmunoassay on Raji cells

Molecule | percent of the antibody binding reactivity retained against unconjugated antibody [2] [%] | other results
125I-labeled TNT-1 F(ab')2 fragment (antibody) |  | immunoreactivity [1]: > 80%
Lym-1/3B immunoconjugate (from UniProt P60568 53-78) | > 75 | 
Lym-1/4A immunoconjugate (from UniProt P60568 125-153) | > 75 | 
Lym-1/4B immunoconjugate (from UniProt P60568 107-153) | > 75 | 
Lym-1/A3 immunoconjugate (from UniProt P60568 57-92) | > 75 | 
Lym-1/IL-2 immunoconjugate (from UniProt P60568 21-153) |  | percent of the antibody binding reactivity retained against unconjugated antibody [3]: > 75%
TNT-1/IL-2 immunoconjugate (from UniProt P60568 21-153) |  | percent of the antibody binding reactivity retained against unconjugated antibody [4]: > 75%
FYMPKKATELKHLQC (peptide, UniProt P60568 64-78, looked up, part only, also: conjugated to murine antibody Lym-1) [Lym-1/3A immunoconjugate] | > 75 | 
B1 |  | percent of radiolabeled preparation bound to cells (immunoreactivity) [5]: 80%
TRMLTFKFYMPKKATELKHLQC (peptide, UniProt P60568 57-78, looked up, part only, also: conjugated to murine antibody Lym-1) [Lym-1/B1 immunoconjugate] | > 75 | 
QMILNGINNYKNPKLTR (peptide, UniProt P60568 42-58, looked up, part only, also: conjugated to murine antibody Lym-1) [Lym-1/E6 immunoconjugate] | > 75 | 

From patent US20040156824A1
